Measurements from PMC5427846 (Scientific Reports, 2017).

Biological target: T1, SecY without pBpa insertion (E. coli, UniProt P0AGA2 1-443)
T1 sequence (looked up): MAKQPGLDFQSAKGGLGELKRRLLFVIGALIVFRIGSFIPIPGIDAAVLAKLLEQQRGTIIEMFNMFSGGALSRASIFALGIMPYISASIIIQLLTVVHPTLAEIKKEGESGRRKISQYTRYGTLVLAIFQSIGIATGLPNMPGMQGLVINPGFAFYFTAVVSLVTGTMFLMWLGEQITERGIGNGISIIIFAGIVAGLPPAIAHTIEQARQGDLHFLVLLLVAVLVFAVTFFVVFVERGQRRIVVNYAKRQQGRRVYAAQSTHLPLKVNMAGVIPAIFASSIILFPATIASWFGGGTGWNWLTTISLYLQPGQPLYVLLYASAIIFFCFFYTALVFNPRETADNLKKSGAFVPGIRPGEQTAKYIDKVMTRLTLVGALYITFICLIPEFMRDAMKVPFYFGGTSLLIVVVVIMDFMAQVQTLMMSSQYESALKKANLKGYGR
Experiment: cell-based or functional assay

anion to cation permeability ratio r (PCl/PK) of the FtsQ-RNC-YidC-SecYEG complex: 5.1
B1: YidC (natural protein, UniProt P25714 1-548, looked up)
chain: MDSQRNLLVIALLFVSFMIWQAWEQDKNPQPQAQQTTQTTTTAAGSAADQGVPASGQGKLISVKTDVLDLTINTRGGDVEQALLPAYPKELNSTQPFQLLETSPQFIYQAQSGLTGRDGPDNPANGPRPLYNVEKDAYVLAEGQNELQVPMTYTDAAGNTFTKTFVLKRGDYAVNVNYNVQNAGEKPLEISSFGQLKQSITLPPHLDTGSSNFALHTFRGAAYSTPDEKYEKYKFDTIADNENLNISSKGGWVAMLQQYFATAWIPHNDGTNNFYTANLGNGIAAIGYKSQPVLVQPGQTGAMNSTLWVGPEIQDKMAAVAPHLDLTVDYGWLWFISQPLFKLLKWIHSFVGNWGFSIIIITFIVRGIMYPLTKAQYTSMAKMRMLQPKIQAMRERLGDDKQRISQEMMALYKAEKVNPLGGCFPLLIQMPIFLALYYMLMGSVELRQAPFALWIHDLSAQDPYYILPILMGVTMFFIQKMSPTTVTDPMQQKIMTFMPVIFTVFFLWFPSGLVLYYIVSNLVTIIQQQLIYRGLEKRGLHSREKKKS
